Residue numbers refer to the chain shown, from its start.
B1: G21A (protein)
chain: MITVDITVNDEGKVTDVIMDAHADHGEYGHDIVCAGASAVLFGSVNAIIGLTSERPDINYDDNGGHFHIRSVDTNNDEAQLILQTMLVSLQTIEEEYNENIRLNYK
modifications: left off: His6, N-terminal, cleaved | SUMO, N-terminal, cleaved
B2: H22A (protein)
chain: B1 chain with A21G, H22A
modifications: left off: His6, N-terminal, cleaved | SUMO, N-terminal, cleaved
B3: D31A (protein)
chain: B1 chain with A21G, D31A
modifications: left off: His6, N-terminal, cleaved | SUMO, N-terminal, cleaved
B4: S38A (protein)
chain: B1 chain with A21G, S38A
modifications: left off: His6, N-terminal, cleaved | SUMO, N-terminal, cleaved

System: fluorogenic substrate
Type: biochemical, Staphylococcus aureus
Settings: 2.0 μM fluorogenic substrate; for measureable activity of mutant enzyme: enzyme 21.38 nM (dimer), n ≥ 3

Row | Molecule | measureable activity of mutant enzyme | activity relative to the wild-type enzyme (enzyme 213.8 nM)
1 | B1 | none | 
2 | B2 | none | 
3 | B3 | none | 
4 | B4 | none | 2.1 ± 0.2%

Reference: article PMC5397363 (Molecular microbiology, 2017)
